In the DeepSol protein solubility set:

Experiment: soluble on expression in E. coli; label from the status in PepcDB or PDB records

| Sequence | soluble on expression in E. coli |
| --- | --- |
| GIPRNSRVDSDDFLWFEGIAFPTMGFRSETLRKVRDEFVIRDEDVIILTYPKSGTNWLAEILCLMHSKGDAKWIQSVPIWERSPWVESEIGYTALSETESPRLFSSHLPIQLFPKSFFSSKAKVIYLMRNPRDVLVSGYFFWKNMKFLKKPKSWEEYFEWFCQGTVLYGSWFDHIHGWMPMREEKNFLLLSYEELKQDTGRTIEKICQFLGKTLEPEELNLILKNSSFQSMKENKMSNYSLLSVDYVVDKTQLLRKGVSGDWKNHFTVAQAEDFDKLFQEKMADLPRELFPWE | soluble |
| GKDWMISAKGTFTFARNILDEVFETEATFNNPNRRRTGRPDGTMFGYNALGYFTYDDFNPDGSLKAGIATQPWGQVYPGDLRYEDLSGPNGVPDGKIDEHDQTVIGFSNWAPEIIFGLAPTVQWKNFDLNALIQGATRTSISLGETLVMPFFDSGSATKLQFSDHWTPDNTNAPYPRLTSEVTVNNHRQPSSWWVRDATYIRLKSIEIGYTLPRSALNFIGISSARVYASGQNLWTWTPFMKELIDPEAKSANGKYYMQQAVYAFGLNITF | not soluble |
| GKGLGRRVLSINEIVGYDAVNQAFNFMDIFKWDPATDTFKFTGKNNSYLLEHKIAPRMGIPETQVRKIYSELDRRSKILRKIHQANITNFYDLFTTLIQLEEAGVIS | not soluble |
| GKKTRSVKSCVGKEFCRFGTQYTTRLGIRLEKTFEYIDTPHKFKMGVSGCPRSCVESGVKDFGVISVENGYQIFIGGNGGTDVTVGKLLTTVETEDEVIQLCGALMQYYRETGVYAERTAPWLERMGFENVKNVLLNQ | not soluble |
| GKNYVRSELKRLNHLCRDFRRDEVHAMDKLLFDQLCQIQLLLGTQAEVHIVSGYRSPATNKQLRSKSKGVAKKSYHMSGQAIDFRLDGVSLKKIREAAISLQAGGVGYYPKSQFIHIDTGPVRQWVGA | not soluble |
| GLGFETMRDGIKVAAKETLLTPRFYTTDFDEMEQLFSKEINPNLDMEELNACLNEFRNDYNKVHFVRNETFKAAADKVTGETRRIFIEFLERSCTAEFSGFLLYKELARRMKASSPEVAEMFLLMSRDEARHAGFLNKALSDFNLALDLGFLTKNRTYTYFKPKFIIYATFLSEKIGYWRYITIYRHLQRNPDNQFYPLFEYFENWCQDENRHGDFLAACLKAKPELLNTFEAKLWSKFFCLSVYITMYLNDHQRTKFYESLGLNTRQFNQHVIIETNRATERLFPVVPDVEDPRFFEILNKMVDVNAKLVELSASSSPLAGLQKLPLLERMASYCLQLLFFKEKDVGSVDIAGSGASRNLAY | not soluble |
| GMAKIEKNAPTMEKKPELFNIMEVDGVPTLILSKEWWEKVANFQAKPDDLILATYPKSGTTWMHEILDMILNDGDVEKCKRAQTLDRHAFLELKFPHKEKPDLEFVLEMSSPQLIKTHLPSHLIPPSIWKENCKIVYVARNPKDCLVSYYHFHRMASFMPDPQNLEEFYEKFMSGKVVGGSWFDHVKGWWAAKDMHRILYLFYEDIKKDPKREIEKILKFLEKDISEEILNKIIYHTSFDVMKQNPMTNYTTLPTSIMDHSISPFMRKGMPGDWKNYFTVAQNEEFDKDYQKKMAGSTLTFRTEI | soluble |
| GMAVECIKDKVTRYPERASYSDEDLVAMLDRNFTCTVSFIDGGIPYAIPMMLASEGKTIYLHGSMKSRIYGILKTGQLIAISLLEINGIVLAKEIKNNSINYVSALIFGRPYEIDDTEKKIEVFRLLTEKLVKGRWDNSIKPSYEDLNGVFVFAVKPETFSMKARTGPPHDTSTDDIWSGVLPIQHTISEAGENAPEYVKSLYGKRIFI | soluble |
| GMAYGSSNPEDLAKNFTKDLYSGDTKSVMSYIDLSEAKSDEEKTFVSDKITQVVAENAAKAKRMGGVKDIQIEEKTINKDSAKIRVLVLFNNDNNQSSNVFLAKKDRKWLVLLK | soluble |
| GMDDQSGDQMRPELTMPPAEAEALRMAYEEAEVILEYGSGGSTVVAAELPGKHVTSVESDRAWARMMKAWLAANPPAEGTEVNIVWTDIGPTGDWGHPVSDAKWRSYPDYPLAVWRTEGFRHPDVVLVDGRFRVGCALATAFSITRPVTLLFDDYSQRRWQHQVEEFLGAPLMIGRLAAFQVEPQPIPPGSLMQLIRTMTSP | soluble |
| GMEKLNFGIPEWAFEFHGHKCPYMPMGYRAGSYALKIAGLEKEKDHRTYLLSEMSPEDMNGCFNDGAQAATGCTYGKGLFSLLGYGKLALILYRPGRKAIRVHVRNSFMDELSTRASDFFRYRKQGYEPSEIPAGAIDPVLEWISSLEDEEIFEYREIDGFTFEPVKKNGAKVRCDVCGEYTYEADAKLLNGKPVCKPDYYGKK | soluble |
| GMEKLSAIKKPDINVADAWEQYWNKTLVNSTPVLWDANVERAVVVDLPRFELLFNPELPLIDFACGNGTQTKFLSQFFPRVIGLDVSKSALEIAAKENTAANISYRLLDGLVPEQAAQIHSEIGDANIYMRTGFHHIPVEKRELLGQSLRILLGKQGAMYLIELGTGCIDFFNSLLEKYGQLPYELLLVMEHGIRPGIFTAEDIELYFPDFEILSQGEGLFQSIHKLPDGNYATPPAFWAVIKHR | soluble |
| GMGLALCGAAAQAQEKPNFLIIQCDHLTQRVVGAYGQTQGCTLPIDEVASRGVIFSNAYVGCPLSQPSRAALWSGMMPHQTNVRSNSSEPVNTRLPENVPTLGSLFSESGYEAVHFGKTHDMGSLRGFKHKEPVAKPFTDPEFPVNNDSFLDVGTCEDAVAYLSNPPKEPFICIADFQNPHNICGFIGENAGVHTDRPISGPLPELPDNFDVEDWSNIPTPVQYICCSHRRMTQAAHWNEENYRHYIAAFQHYTKMVSKQVDSVLKALYSTPAGRNTIVVIMADHGDGMASHRMVTKHISFYDEMTNVPFIFAGPGIKQQKKPVDHLLTQPTLDLLPTLCDLAGIAVPAEKAGISLAPTLRGEKQKKSHPYVVSEWHSEYEYVTTPGRMVRGPRYKYTHYLEGNGEELYDMKKDPGERKNLAKDPKYSKILAEHRALLDDYITRSKDDYRSLKVDADPRCRNHTPGYPSHEGPGAREILKRK | soluble |
| GMLESVRKEWLEIMDRELLEKARSLINANYISTTLSTVDRNYEVNIAVISVLEMIGDDTIICARFGADKTYANLKETGKGVFMVLLTDNDKSKDGIRVYVELSADLQEGEYFDRIKKRLDNTTYKNFPLKNCLVFKIVKILPVSLLRK | soluble |
| GMNQAMDTKQIAPFTLALPEGEALPLVCDSPHSGTFYPADFGAVVAPERLRGGEDTHVDALWEAVPRVGGTLLAATFPRVYIDPNRMLDDIDPAQLEGPWPTPLAPGEKTRLGYGLIWSNVDAATPIYDRKLTVAEVQRRINRYYRPYHAALTEAVEGAYQRFGAVWHLNLHSMPNNAYERLKIQSPRPLADFVLGDRDGTTCEPGLVDLVERELREKGYTVARNDPYKGVQLIAQIGRPAERRNSLQIEIRRPLYMEEGTRERNEGFATLQRDLTLLTLRIAEYVRRGV | soluble |
| GMPDSPTLLDLFAEDIGHANQLLQLVDEEFQALERRELPVLQQLLGAKQPLMQQLERNGRARAEILREAGVSLDREGLARYARERADGAELLARGDELGELLERCQQANLRNGRIIRANQASTGSLLNILRGQDAPSLYDSRGGTASSSRQRPLSQA | soluble |
| GMPKLDLDSIERRIGSVYPGRLNAAMDGRSSLRLGDAGGLSQFGVNLVRLEPGAKSSLRHYHMEQDEFVMVTEGALVLVDDQGEHPMVPGDCAAFPAGDPNGHQFVNRTDAPATFLVVGTRTPTETAYYSDMDMMVKQDASGFAFTRKDGSPLTADQIGDDNE | soluble |
| GMPQTLKPDTPAGTPAAGAVAFRRQVLPQDALLVRRVVESTGFFTPEEADVAQELVDEHLMHGAACGYHFVFATEDDDMAGYACYGPTPATEGTYDLYWIAVAPHRQHSGLGRALLAEVVHDVRLTGGRLLFAETSGIRKYAPTRRFYERAGFSAEAVLKAFYRAGDDKIIYRLEVA | soluble |
| GMSEAPHLTFDLDTPGVSTGHLVVPKGADCEALSLPVFSCNRGEGPSLLITGGNHGNELQGPILARRLVKWLPEAQRCGRIIIVPEINPLAVQAWTRNTPIDGKNLNRVFPGRSDGSVSERIADAISRLLLPVVDTVLDLHSFGPTWDCAPSIISHPIADIDQMTKTVSISKAFKLPVTLLWEHNETDGMFDTLVHRQGKTFICTEFGGGVVSAEALTIYEAGVRNGLIALGLVKGKAEYPTFRQQKTGQTLETTSSDQLKSPSPGIFEPRCSVMDEVEQGDVVGVLHPMGSLSAASIDIRAQSKSTVFAIRSAMYVQGNEEVAILARPLAR | soluble |
